Laboratory results published in patent US20210269542A1 (POTENZA THERAPEUTICS, published 2021).

Key:
Assay in all cases: BLI (Octet): GITR-Fc mutant on anti-human Fc sensor, ABP1 Fab in solution
[1] = molecular target: T1, human GITR-Fc mutant C58A (human, UniProt Q9Y5U5 26-162)
T1 construct: Point mutation in the human GITR extracellular domain with an Fc tag
T1 chain: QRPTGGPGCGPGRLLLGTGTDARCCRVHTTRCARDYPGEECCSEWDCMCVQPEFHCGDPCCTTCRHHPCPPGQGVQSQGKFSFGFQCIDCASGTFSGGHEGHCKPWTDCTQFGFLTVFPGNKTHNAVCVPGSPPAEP

[2] = molecular target: T2, human GITR-Fc mutant R59A (human, UniProt Q9Y5U5 26-162)
T2 chain: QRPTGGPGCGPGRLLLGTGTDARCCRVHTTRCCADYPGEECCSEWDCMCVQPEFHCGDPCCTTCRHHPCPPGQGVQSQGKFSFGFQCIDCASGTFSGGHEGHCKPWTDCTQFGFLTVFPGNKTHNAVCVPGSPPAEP

[3] = molecular target: T3, human GITR-Fc mutant Y61A (human, UniProt Q9Y5U5 26-162)
T3 chain: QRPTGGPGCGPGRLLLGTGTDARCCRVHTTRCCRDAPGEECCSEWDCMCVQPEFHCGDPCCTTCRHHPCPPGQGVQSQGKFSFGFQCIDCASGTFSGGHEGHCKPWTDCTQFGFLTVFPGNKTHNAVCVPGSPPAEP

[4] = molecular target: T4, human GITR-Fc mutant E64A (human, UniProt Q9Y5U5 26-162)
T4 chain: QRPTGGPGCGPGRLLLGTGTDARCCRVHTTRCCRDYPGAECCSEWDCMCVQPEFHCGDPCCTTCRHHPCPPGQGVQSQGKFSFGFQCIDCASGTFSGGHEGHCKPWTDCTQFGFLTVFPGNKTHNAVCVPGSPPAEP

[5] = molecular target: T5, human GITR-Fc mutant C67A (human, UniProt Q9Y5U5 26-162)
T5 chain: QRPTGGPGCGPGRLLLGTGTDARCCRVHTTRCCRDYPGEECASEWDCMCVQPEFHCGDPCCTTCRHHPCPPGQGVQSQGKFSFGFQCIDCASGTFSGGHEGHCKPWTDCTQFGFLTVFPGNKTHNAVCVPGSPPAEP

[6] = molecular target: T6, human GITR-Fc mutant C66D (human, UniProt Q9Y5U5 26-162)
T6 chain: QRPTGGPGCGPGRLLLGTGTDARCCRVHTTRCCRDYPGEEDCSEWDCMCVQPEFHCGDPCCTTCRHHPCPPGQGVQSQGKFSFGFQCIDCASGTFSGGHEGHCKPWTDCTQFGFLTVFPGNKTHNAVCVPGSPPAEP

[7] = molecular target: T7, human GITR-Fc mutant R56A (human, UniProt Q9Y5U5 26-162)
T7 chain: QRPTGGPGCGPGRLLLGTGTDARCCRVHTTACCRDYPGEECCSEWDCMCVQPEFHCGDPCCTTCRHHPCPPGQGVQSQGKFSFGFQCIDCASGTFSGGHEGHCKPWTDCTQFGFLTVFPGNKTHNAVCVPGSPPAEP

[8] = molecular target: T8, human GITR-Fc mutant D60A (human, UniProt Q9Y5U5 26-162)
T8 chain: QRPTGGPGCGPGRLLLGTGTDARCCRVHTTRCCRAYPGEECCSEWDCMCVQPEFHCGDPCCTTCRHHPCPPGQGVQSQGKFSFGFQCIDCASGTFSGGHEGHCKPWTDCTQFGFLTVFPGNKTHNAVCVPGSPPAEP

[9] = molecular target: T9, human GITR-Fc mutant P62A (human, UniProt Q9Y5U5 26-162)
T9 chain: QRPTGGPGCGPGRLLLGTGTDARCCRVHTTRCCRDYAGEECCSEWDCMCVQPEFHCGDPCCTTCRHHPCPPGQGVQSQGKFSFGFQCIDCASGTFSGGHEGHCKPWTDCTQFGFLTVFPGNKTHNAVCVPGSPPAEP

[10] = molecular target: T10, human GITR-Fc mutant E65A (human, UniProt Q9Y5U5 26-162)
T10 chain: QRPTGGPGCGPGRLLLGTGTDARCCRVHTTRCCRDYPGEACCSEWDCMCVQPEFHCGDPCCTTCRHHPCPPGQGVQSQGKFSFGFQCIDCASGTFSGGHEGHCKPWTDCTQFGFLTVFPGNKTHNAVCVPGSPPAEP

B1: ABP1 Fab (Fab, V domains shown)
VH: QVQLQESGPGLVKPSETLSLTCAVSGYSISSGLGWGWIRQPPGKGLEWIGGIYESGSTYYNPSLKSRVTISVDTSKNQFSLKLSSVTAADTAVYYCAHERVRGYGDYGGHHAFDIWGQGTMVTVSS
VL: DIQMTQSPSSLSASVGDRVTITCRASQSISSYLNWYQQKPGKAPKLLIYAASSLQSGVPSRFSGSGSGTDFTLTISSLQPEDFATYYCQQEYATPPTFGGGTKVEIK
Q: Does B1 bind [1]?
A: no binding

Q: Does B1 bind [2]?
A: no binding

Q: Does B1 bind [3]?
A: no binding

Q: Does B1 bind [4]?
A: no binding

Q: Does B1 bind [5]?
A: no binding

Q: Does B1 bind [6]?
A: no binding

Q: Does B1 bind [7]?
A: binds

Q: Does B1 bind [8]?
A: binds

Q: Does B1 bind [9]?
A: binds

Q: Does B1 bind [10]?
A: binds
